From the nanobody polyreactivity screen of Harvey et al. (2022)

Assay: yeast display, Sf9 membrane polyspecificity reagent, FACS + sequencing; frameworks hold sequencing errors
In short: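 Polyreactivity labels are assigned by the sorting gate from which each nanobody was recovered. The gates were low and high (top ~1%), set on anti-HA fluorescence for expression and streptavidin fluorescence for reagent binding. Before sorting, galactose-induced (36–48 hours) yeast display cells were stained for 1 hour at 4 °C with 10% biotinylated, detergent-solubilized Sf9 membrane reagent.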

Question: With “QVQLVESGGGLVQAGGSLRLSCAASGSISYRYVMGWYRQAPGKERELVAAITTSGGSTYYADSVKGRFTISRDNAKNTVYLQMNSLKPEDTAVYYCATVYQAAQLRSHYDYWGQGTQVTVSS” as the sequence, how does the “polyreactivity (PSR sort gate)” value read?
Answer: high polyreactivity

Question: Which “polyreactivity (PSR sort gate)” value does the source give for “QVQLVESGGGLVQAGGSLRLSCAASGSISYYNAMGWYRQAPGKERELVATITDSGGSTYYADSVKGRFTISRDNAKNTVYLQLNSLKPEDTAVYYCAVDYSEWYSIYDYWGQGTQVTVSS” here?
Answer: low polyreactivity

Question: With “QVQLVESGGGLVQAGGSLRLSCAASGSIVGYAMGWYRQAPGKERELVAAISSGGSTNYADSVKGRFTISSDNAKNTVYLQMNSLKPVDTAVYYCAARRRYKSGYWGQGTQVTVSS” as the sequence, how does the “polyreactivity (PSR sort gate)” value read?
Answer: high polyreactivity

Question: Which “polyreactivity (PSR sort gate)” value does the source give for “QVQLVESGGGLVQAGGSLRLSCAASGSIVPFYAMGWDRQAPGKERELVATISSGDSTHYADSVKGRFTISRDNAKNTVYLQMNSLKPEDTAVYYCNRRNKAQRFFELGYWGQGTQVTVSS” here?
Answer: low polyreactivity

Question: For “QVQLVESGGGLVQAGGSLRLSCAASGSIVPYNVMGWYRQAPGKERELVAAITRRGGSTYYADSVKGRFTISRDNAKNTVYLQMNSLKPEDSAVYYCAAVPYPRGKGYDYWGQGTQVTVSS”, which “polyreactivity (PSR sort gate)” value is on record?
Answer: high polyreactivity

Question: Which “polyreactivity (PSR sort gate)” value does the source give for “QVQLVESGGGLVQAGGSLRLSCAASGSIVRYSVGWYRQAPGKERELVAAISIGGTTYYADSVKGRFTISRDNAKNTVYLPMNSLKPEDTAVYYCNVRRRTWHYITSMDYWGQGTQVNVSS” here?
Answer: high polyreactivity

Question: Which “polyreactivity (PSR sort gate)” value does the source give for “QVQLVESGGGLVQAGGSLRLSCAASGSIVSTYAMGWYSQAPGKERELVAAITSTGSMNYADSVKGRFTISRDNAKNTVYLQMNSLKPEDTAVYYCAARYAGPSPTDTGHDYWGQGTQVTVSS” here?
Answer: low polyreactivity

Question: Which “polyreactivity (PSR sort gate)” value does the source give for “QVQLVESGGGLVQAGGSLRLSCAASGSIVTSNAMGWYRQAPGKERELVAAITSSSSTNYADSVKGRFTISRDNAKNTVYLQMNSLKPEDTAVYYCAADYTWYYPYWIMDYWGQGTQVTVSS” here?
Answer: low polyreactivity

Question: For “QVQLVESGGGLVQAGGSLRLSCAASGSIVYANTMGRYRQAPGKERELVAAIRSVGRTYYADSVKGRFTISRDNAKNTVYLQMNSLKPADTAVYYCAADPRSYFTSEYWGQGTQVTVSS”, which “polyreactivity (PSR sort gate)” value is on record?
Answer: low polyreactivity

Question: For “QVQLVESGGGLVQAGGSLRLSCAASGSIYDSYAMGWYRQAPGKERELVATINTSGGSTYYADSVKGRFTIHDNAKNTVYLQMNSLKPEDTAVYYCNAGRWVYWQNNFGDYGYWGQGTQVTVSS”, which “polyreactivity (PSR sort gate)” value is on record?
Answer: low polyreactivity

Question: Which “polyreactivity (PSR sort gate)” value does the source give for “QVQLVESGGGLVQAGGSLRLSCAASGSIYGDYVMGWYRQAPGKERELVAAINRGGYTYYADSVKGRFTISRDNAKNTVYLQMNSLKPEDTAVYYCAAGYPSWYYGYPYDSWGQGTQVTVSS” here?
Answer: low polyreactivity

Question: With “QVQLVESGGGLVQAGGSLRLSCAASGSIYGLNAMGWYRQAPGKESELVAAITWSGGSSTYYADSVKGRFTISRDNAKNTVYLQMNSLKPVDTAVYYCAAGRVFIPYYFRFYYWGQGTQVSVSS” as the sequence, how does the “polyreactivity (PSR sort gate)” value read?
Answer: high polyreactivity

Question: For “QVQLVESGGGLVQAGGSLRLSCAASGSIYGPYAMGLYRQAPGKERELVAGITRSVGSTYYADSVKGRFTISRDYAKNTVYLQMNSLKPEDTAVYYCNAKWMYSRWAGYDYWGQGTQVTVSS”, which “polyreactivity (PSR sort gate)” value is on record?
Answer: low polyreactivity

Question: With “QVQLVESGGGLVQAGGSLRLSCAASGSIYGVKAMRWYRQAPGKERELVADITKSTGDTYADSVKGRFTISRDNAKNTVYLQMNSLKPEDTAGYYCNARVTVKQKRLYLYDFWGQGTQVTVSS” as the sequence, how does the “polyreactivity (PSR sort gate)” value read?
Answer: low polyreactivity

Question: For “QVQLVESGGGLVQAGGSLRLSCAASGSIYPNGLGWYRQAPGKERELVATITSGGSTYYADSVKGRFTISRDNAKNTVYLPMHSQKPEDTAVYYCAATVYGGYSGSGSNYWGQGTQVTVSS”, which “polyreactivity (PSR sort gate)” value is on record?
Answer: low polyreactivity

Question: With “QVQLVESGGGLVQAGGSLRLSCAASGSIYRQYAMGWSRPAPGKERELVAASRRGTSTYYADSVKGRFTLSRDNAKNTVYLHMNSLKPDDSAVYYCAADTSWYSWWFDYWGQGTQVTVSS” as the sequence, how does the “polyreactivity (PSR sort gate)” value read?
Answer: low polyreactivity

Question: With “QVQLVESGGGLVQAGGSLRLSCAASGSIYRYYAMGWYRQAPGKETELVAAIRVSTGSTSYADSVKGRFTISRDNAKNTVYLQMNSLKPEDTAFYYCNAGVGYFVGTYYGFLPYDYWGQGTQVTVSS” as the sequence, how does the “polyreactivity (PSR sort gate)” value read?
Answer: high polyreactivity

Question: Which “polyreactivity (PSR sort gate)” value does the source give for “QVQLVESGGGLVQAGGSLRLSCAASGSIYYNAMGWYRQAPGKERELVAAISTSGGTTYYADSVKGRFTISRDNAKNTVYLQMISQKPEDTAVYYCNARPSRRGAFDYWGQGTQVTVSS” here?
Answer: high polyreactivity

Question: Which “polyreactivity (PSR sort gate)” value does the source give for “QVQLVESGGGLVQAGGSLRLSCAASGSIYYRNAMGSYRQAPGKERELVAAISSTGSTYYADSVKGRFTISRDNAKNTVYLQMNSMKPEDTAVYYCAARQGYRSYRRYDSWGQGTQVTVSS” here?
Answer: high polyreactivity

Question: Which “polyreactivity (PSR sort gate)” value does the source give for “QVQLVESGGGLVQAGGSLRLSCAASGSIYYTYAMGWYRPAPGKERELVAAISKRGGSTYYADSVKGRFTISRDNAKNSVYLQMNSLKPEDTAVYYCAARYNAPRGGGSDDYWGQGTQVTVSS” here?
Answer: high polyreactivity

Question: For “QVQLVESGGGLVQAGGSLRLSCAASGSIYYYTMGWYRQAPGKERELVAAISRSGTRTYYADSVKGRFTISRDNAMYTVYLQMNSLKPEDTAGYYCAARILPPGDNVDDDYWGQGTQVTVSS”, which “polyreactivity (PSR sort gate)” value is on record?
Answer: high polyreactivity

Question: Which “polyreactivity (PSR sort gate)” value does the source give for “QVQLVESGGGLVQAGGSLRLSCAASGSLFFLYAMGWYRQAPGKDRELVAAISRTGSTYADSVKGRFTISRDNAKTTVYLQMNSVKPEDTAVYYCAAEYRYYWYGTMNYWGQCTQVTVSS” here?
Answer: low polyreactivity

Question: For “QVQLVESGGGLVQAGGSLRLSCAASGSLLADNAMGWSRQAPGKERELVAAISRRGGRTYYADSVKGRFTISRDNAKNTVYLQMNSLKPEDTAVYYCAAVGSFHIVDYWGQGTQVTVSS”, which “polyreactivity (PSR sort gate)” value is on record?
Answer: high polyreactivity

Question: With “QVQLVESGGGLVQAGGSLRLSCAASGSNFAKNAMGWYRQAPGKEREMVAAITYSGGSTYYADSVKGRFTISRDNAKNTVYVQMNSLKPEDTAVYYCAADVWWSYYRYDYWGQGTQVTVSS” as the sequence, how does the “polyreactivity (PSR sort gate)” value read?
Answer: low polyreactivity

Question: For “QVQLVESGGGLVQAGGSLRLSCAASGSNFANYAMGWYRQAPGKEREFVAGISGSGGSTFYADSVKGRFTISRDNAKNTVYLQMNSLKPEDTAVYYCAVVQRSKRTYPWYDYWGQGTQVTVSS”, which “polyreactivity (PSR sort gate)” value is on record?
Answer: low polyreactivity

Question: Which “polyreactivity (PSR sort gate)” value does the source give for “QVQLVESGGGLVQAGGSLRLSCAASGSNFDLNAMGLYRQAPGKERELVAAISSGGGTYYADSVKGRFTIARDNAKNTVYLQMNSLKPEDTAVYYCNRVTRWTYNYWGQGTQVTVSS” here?
Answer: high polyreactivity

Question: Which “polyreactivity (PSR sort gate)” value does the source give for “QVQLVESGGGLVQAGGSLRLSCAASGSNFFSNAMGWYRQAPGKERELVAAITSSGASTYYADSVKGRFTISRDNAKNTVYLQMNSLKPEDTAVYYCAVVGGGKRYGYWGQGTQVTVSS” here?
Answer: high polyreactivity

Question: Which “polyreactivity (PSR sort gate)” value does the source give for “QVQLVESGGGLVQAGGSLRLSCAASGSNFGSYTMGWSRQAPGKERELVAAISLGGGSTYYADSVKGRFTISRDNAKNTVYLQMNSLKPEDTAVYYCAAGFTDPYDYWGQGTQVTVSS” here?
Answer: low polyreactivity

Question: With “QVQLVESGGGLVQAGGSLRLSCAASGSNFGYYPMGWYRQATGKERELVAAISWSDGSTYYADSVKGRFTISRDNAKNTVYLQMNSRKPEDTAVYYCAARFTPYITSDDGHYDYWGQGTQVTVSS” as the sequence, how does the “polyreactivity (PSR sort gate)” value read?
Answer: low polyreactivity

Question: Which “polyreactivity (PSR sort gate)” value does the source give for “QVQLVESGGGLVQAGGSLRLSCAASGSNFGYYTLGWYRQAPGKERELVAAIRYGDGSTNYADSVKGRFTISRDNAKNTVYLKMNSLKPEDTAVYYCATRSQRGYRGYNYWGQGTQVTLSS” here?
Answer: high polyreactivity

Question: For “QVQLVESGGGLVQAGGSLRLSCAASGSNFIPNAMGWYRQAPGKERELVAAIRSGRSTYYADSVKGRITISRDNANNTVYLQMNSLQPEATAVYYCAADTYPYYYYLARYYYWGQCTQVTVSS”, which “polyreactivity (PSR sort gate)” value is on record?
Answer: low polyreactivity

Question: With “QVQLVESGGGLVQAGGSLRLSCAASGSNFKTYAMGLYRQAPGKERELVAAISSGGSTYYADSVKGRFTISRDNAKITVYLQMNSLKPEDTAVYYCAADPWGAFVSFASYYYWGQATQVTVSS” as the sequence, how does the “polyreactivity (PSR sort gate)” value read?
Answer: low polyreactivity

Question: Which “polyreactivity (PSR sort gate)” value does the source give for “QVQLVESGGGLVQAGGSLRLSCAASGSNFRDNGMGWYRQAPGKERELVAAINSGDSTYYADSVKGRFTISRDNAKNTVYLQMNSLKPEDTAVYYCNADDRRALSQRQYDWYDYWGQGTQVTVSS” here?
Answer: low polyreactivity

Question: For “QVQLVESGGGLVQAGGSLRLSCAASGSNFRFYVMGWYRQAPGKERELVAAISIGGSTNYADSVKGRFTISRDNAKNSVYLQMNSLKPEDTAVYYCAADYWYGAGLPHGTEFDYWGQGTQVTVSS”, which “polyreactivity (PSR sort gate)” value is on record?
Answer: low polyreactivity

Question: With “QVQLVESGGGLVQAGGSLRLSCAASGSNFRGYTMGWYRQAPGKERELVANISTSVGRTYYADSVKGRFTISRDNAKNTVFLQMNSLKPEDTAVYYCNARRAYRWKPDTGSAGMDYWGQGTQVTVSS” as the sequence, how does the “polyreactivity (PSR sort gate)” value read?
Answer: high polyreactivity

Question: With “QVQLVESGGGLVQAGGSLRLSCAASGSNFRRNAMGWYRQAPGKERELVAAINSRGGSTYYADSVKGRFTISRDNAKNTVYLQMNSLKPEDTAVFYCATARFLRYDRYDDYWGQGTQVTVSS” as the sequence, how does the “polyreactivity (PSR sort gate)” value read?
Answer: low polyreactivity

Question: For “QVQLVESGGGLVQAGGSLRLSCAASGSNFSYNAMGWYRQAPGKERELVATITTGGRTSYADSVKGRFTISRDNAKNTVYLQMNSLKPEDTAVYYCAAVGRFSSRPRVVYYGYDYWGQGTQVTVSS”, which “polyreactivity (PSR sort gate)” value is on record?
Answer: low polyreactivity

Question: Which “polyreactivity (PSR sort gate)” value does the source give for “QVQLVESGGGLVQAGGSLRLSCAASGSNFTANAMGWYRQAPGKERELVAAISRSGGRTYYADSVKGRFTISRDNAKNTVYLQMNSLKPEDTAVYYCNVGRFNTSGYDYWGQGTQVTVSS” here?
Answer: high polyreactivity

Question: For “QVQLVESGGGLVQAGGSLRLSCAASGSNFVIYAMGWYRQAPGKERELVAAIRFSTGSTYYADSVKVRFTNSRDYAKNTVYLQMNSLKPEDTAVYYCAAATWQWPWYDYWGQGTQVTVSS”, which “polyreactivity (PSR sort gate)” value is on record?
Answer: high polyreactivity

Question: With “QVQLVESGGGLVQAGGSLRLSCAASGSNFYFYAMGWYIQAPGKERELVADITWSGGSTYYADSVKGRFTISRDNAKNTVYLQMNSLKREDTAVYYCATDSWFGLEYWGQGTQVTVSS” as the sequence, how does the “polyreactivity (PSR sort gate)” value read?
Answer: high polyreactivity

Question: Which “polyreactivity (PSR sort gate)” value does the source give for “QVQLVESGGGLVQAGGSLRLSCAASGSNFYGNAMGWYRQAPGKERELVAAISRSGGRSYYADSVKGRFTISRDNAKNTVYLHMNSLKPEATAVYYCAARQYQATLQYGYYPGYGYWGQGTQVTVSS” here?
Answer: high polyreactivity
